Results published in the DeepSol protein solubility set.

Experiment: soluble on expression in E. coli; label from the status in PepcDB or PDB records

Sequence	soluble on expression in E. coli
MSLKKTILCFGEALIDMLAQPLVKKGMPRAFLQCAGGAPANVAVAVARLGGAVQFVGMLGSDMFGDFLFDSFAEAGVVTDGIVRTSTAKTALAFVALDAHGERSFSFYRPPAADLLFRVEHFQDASFSDALIFHACSNSMTDADIAEVTFEGMRRAQAAGAIVSFDLNFRPMLWPNGENPASRLWKGLSLADVVKLSSEELDYLANTLAADANAVIQQLWQGRAQLLLVTDAAGPVHWYTRTAGGEVPTFRVQVQDSNAAGDAFVGGMLYTFAQQFDDAAALIDFCHDPESIVSTLRFAAAVGALAVTRQGAFTAMPMLSEVLSLIQEQSEGHHHHHH	soluble
MGSDKIHHHHHHMEAIQVASVKDNFVKTLEKIRKKHGVDIIALFAIRQSLAIHVINSADNPVSFSAGTIFNLTLTPLVEEFLFNVKTFENHPQKTRFALVENVQWELYIPVVFKEFPTGFVYVASKKKRDAEKTEGIIRDLQDFLKAHGLEYYFLEYSVVLDQLLTTVAILIDRLFSRVSRYTLNHIYNVAFWAEEIGKIVGLDEKRLAKLYLAGLLHDIGKVYIDERILNKEGRLTLQEYQEMKKHVDYSYNMVKDLMIWDIEDDVALWVVQHHEKFDGSGYPFGLKEEEITPEGRILKIADTLDAMLSPRSYRNPFPLDDVIKEIERLRGKDFDPLLADLTVDLLREKKESLGLFEGRILPATLIAGEGIHEGILRKNDGYHVFISDYV	not soluble
MGVANDSSPEYRWMSPHRLSDTVILGDCLYFNNIMSQLDLHQNWAPSVRLLNYFKNFNKETLLKIEENDYINSSFFQQKDKRFYPINDDFYHISTGGYGIVFKIDNYVVKFVFEATKLYSPMETTAEFTVPKFLYNNLKGDEKKLIVCAWAMGLNYKLTFLHTLYKRVLHMLLLLIQTMDGQELSLRYSSKVFLKAFNERKDSIKFVKLLSHFYPAVINSNINVINYFNRMFHFFEHEKRTNYEYERGNIIIFPLALYSADKVDTELAIKLGFKSLVQYIKFIFLQMSLLYIKIYELPCCDNFLHADLKPDNILLFDSNEPIIIHLKNKKFVFNERIKSALNDFDFSQVAGIINKKIKNNFKVEHNWYYDFHFFVHTLLKTYPEIEKDIEFSTALEEFIMCTKTDCDKYRLKVSILHPISFLEKFIMRDIFSDWINGGN	not soluble
MGQFYCLHCDRYFSNVSVRDDHFKTKKHKKRVNMMMGQAPHSQLDADLAGGMGMPDNGPKLMSNLVFTELRKPETEDLPGMGQFNCLLCHRNFSNASVMDYHFKTKKHKKRVKKIERPAPHSQLDADLAGGMGMPDNGPKLMSA	not soluble
MSLQVWTKLFAKSPFKPLIKHAEVVVETVETLEKALEAWAKGDYEKMKELAVEVDRLEDVADRIKMELRESITAKLLMPVQRSDVLEYLHMQDKIADAAEDTAKWLLVRDRGNVPEDIKDIILKMGKESIRAAKLVYEAIKQMDMVVESGFSENEIKKEYDLIRQIEEVENKIDGLDTKLMRLVLNANISWTEGIYLLNIGRTISNISDKAKDAAERIRIMMSKEGHHHHHH	soluble
MLEEIPSSVEADLMPNLDSNVSSDNGTSKRFRIQANAVEARSFFASLVKGTEYSVAIHPAVQGNITVNLSDVTLDEVLSVVQNMYGYDVMKSGKVIQVYPAGMRTVTIPVDYLQFKRSGRSLTSIVTGSVTSAGTSNSGGSSDSSDSSDSNNSNNGNDSSTTSTGGTRIETITESDFWPMLQQAVANLIGSGKGQSVVVTPQAGVITVRAFPDDIREVREFLGVSQERMQRQVILEAKILEVTLSDGYQQGINWSNLSASIGNSGSIIVNRPASALPPLDAIGTLLGGQTNVTISDGNFEAVLNFMSTQGDLNVLSSPRITAANNQKSVIKVGTDQYFVTELSSNAGNGENSNAVPEVELTPFFSGISLDVTPQIDNKGNVFLHVHPAVIEVTEEVKQLNLGGDFQNIQLPLAKSSIRESDSVIRAKDGDVVVIGGLMKQQNVEQVSKVPFLGDVPALGHLFRNTSNVTQKTELVILLKPTVVGVNSWQKELERSRDLLQEWFPDAQLEHHHHHH	soluble
GKLDATLRAIVHTAAELVDARYGALGVRGYDHRLVEFVYEGIDEETRHLIGSLPEGRGVLGALIEEPKPIRLDDISRHPASVGFPLHHPPMRTFLGVPVRIRDEVFGNLYLTEKADGQPFSDDDEVLVQALAAAAGIAVDNARLFEESR	soluble
MGSDKIHHHHHHLSITKPHTTVLLTGATGNWGRATLRELSSRSDRVTVLVLSLPGEKDKAVLSEFSAMENLDVVWGDLTDYATVATCVARADVVLHVGAVVSPLADEQPELATRVNVGSMRNIIRAVKAQPDPSRIRVVGVGSVAQTGNRNPPLHWGRVGDPIRVSRFDAYGQSKVTAERELVEAGLPTWVWLRQTGIFHPGMLEIRDPIMTHSPFAGVMEWVSAQDSARLLANLCEPDVPGELWGGVYNIGGGEGWRLSNWQLQTAIGQAVGVKDIRKWYDRNWFALKNFHGQWYTDSDRLHALVPFRQDTFESALARALATAPSSVRNAGKVPAWIVKHLVMKPLSRKPRGTMAAIRSGTDQEVSAHFGSLPEWRSIGDWSTFEPPAPSRTPSYLDHGYDENKPASEWSAIDYLEAAAFRGGRLLTEDVNPGLPSAPLMWSCGAGHEFAASPRLVLQAGHWCPACTADPAGYDRQAEHNKFLAQVIDA	not soluble
MSLYCNLLKPIKIGNLELKNRVSFAPTSMGLKLEEKIKKFSDIAKSGVALITLGDVSIRPSFHKVAISLSDEDGVMKYKKIVDEIHNSGAKVSAQLFCSDYDVNLIKDTMKMGITSHDEIKKIMNDGVKDYITNMTKGEIKNIINLFKVTALNAKKAGFDMIQIHGDRLVGSFSSSIFNNRNDEYGGTCDNRSRFASEIISSIRDEVKDIPIDYKFAIRQENPHYGNAGVLLSEVEYFVKKFESLGVNSFHVTLANHSKLEDTIPTNNHPYFKDEGCFLYLADEVKKHTNLPVCGVGKLSSPDFIESIISNNRVDMVSMSRQLLADSNWLQKVKDGRVDEIKKCCYCNKKCADALQTRSQFGCILDEGHHHHHH	soluble
ATAAQAERTLPKKYGGRFTVTLIPGDGVGKEITDSVRTIFEAENIPIDWETINIKQTDHKEGVYEAVESLKRNKIGLKGLWHTPADQTGHGSLNVALRKQLDIYANVALFKSLKGVKTRIPDIDLIVIRENTEGEFSGLEHESVPGVVESLKVMTRPKTERIARFAFDFAKKYNRKSVTAVHKANIMKLGDGLFRNIITEIGQKEYPDIDVSSIIVDNASMQAVAKPHQFDVLVTPSMYGTILGNIGAALIGGPGLVAGANFGRDYAVFEPGSRHVGLDIKGQNVANPTAMILSSTLMLNHLGLNEYATRISKAVHETIAEGKHTTRDIGGSSSTTDFTNEIINKLSTMHHHHH	soluble
MSNQYDPSQPVVFTDFSPKEGGMRTRLYIEGSNFGNDPTKIHITIGGEKTKTIGADGKKIYCMVPSKAFDGIINVRVDGPDGKPIAEHTFEEEFKYTPATIVGTLLRKVDEDNNSAFQEGSFDEGASIPSNDCMVFDPKYKDGDNRLLFSSNHSDGLHLIDLTERTVKRLFPRTGYSTMYSFTFSADGDTLLFTDDHGQDNTTRANIYYSLRRENFRRIRPYNYGRTAYSLVYMDDGTIFYTTWWEGKVYKMIRNGAIPNIDENAEVAFSLSQISAVGGSHTILFRHPSNKFMYMLSDNFGAVFRADYDPVAKTFGNPSIIAGNMNDKSFKEGTGGSARFNKPQFGVFVKNEKYGEGIGPDNDQYDFYFCDRENHCIWKLDPHGVASLAAGRSNENADGKIWGYVDGNPLHEARFNQPAGLAYDPDTDMFYIGDIDNKGIRYMTTELEHHHHHH	not soluble
PTPKTELVQKFRVQYLGMLPVDRPVGMDTLNSAIENLMTSSSKEDWPSVNMNVADATVTVISEKNEEEVLVECRVRFLSFMGVGKDVHTFAFIMDTGNQRFECHVFWCEPNAANVSEAVQAACSGPSSGIEGRGSSGSSGSSGSSGDAAVTPEERHLSKMQQNGYENPTYKFFEQMQN	soluble
MAHHHHHHMRRSSSCLYKIPKNTGVAPRFDTWNEKYEPWEHLKRMGRLAGTGFYIPPEWYNHFRMFPPINHNFQQEKTLNPHNVSEPTQDDTDYLSVERIALRDELARKSRLLASEGMRYYNVFWIRKPLDRMERHYYELERKGVAHSVAIKRVLQMFYDELTVKKRVAAIQAEEAKLSGKYISMREATVLMGVLTQLQKEQLTPHQVTLLAKEQREKAQAGEAFAATVERSTETVADAAKDAAEGDEVMSADSLAELLSTEADLDDSSPSISYKVTIHETEHDSVKQLQELALDHTGKSDWYTGASPVLHMEEAMPAKRTPASKKTES	not soluble
MEEQNNNQLQIELKEEVAQGTYANLAIITHSSSEFILDFVRVMPGVPKAGVQSRIIVAPEHAKRLLRALEDNIAKYERAFGPIRISEESPMPPLSVVKGEA	not soluble
